Among the data in the supplement of paper PMC10567573 are protein stability index values, retold here.

± gives the standard deviation.

This data set can be described thus: protein stability index of a GFP-peptide fusion (GPS, HEK-293T) (PSI 1-6); higher = more stable.
[1] abbreviates: treatment: DMSO, c terminus: a fixed tail appended.
Setting [2] is: treatment: MLN4924 1 uM, 8 h, c terminus: a fixed tail appended.
Setting [3] is: treatment: DMSO, c terminus: native.
Setting [4] is: treatment: MLN4924 1 uM, 8 h, c terminus: native.
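Also: 24-mer peptide tiles fused after GFP, lentivirally expressed, FACS-sorted into six equal bins by GFP/DsRed ratio, decoded by Illumina sequencing, PSI is the read-weighted mean bin number.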

As to MFLQLVPSWNGSLKQLLTETDVWF [GMCL1], the protein stability index reads like this: under setting [1], 3.13 ± 0.68; under setting [2], 2.56 ± 1.3.

For VENKEKDSNMPHFQTLQAIVSHFQ [CEP70], the protein stability index was determined as 2.89 ± 0.27 under setting [1] and 3.18 ± 0.36 under setting [2].

ESAKDWETSPLPGMLAPAAGPAFD [PPFIA4]: the protein stability index by setting is: under setting [1], 4.62 ± 0.076; under setting [2], 4.61 ± 0.33.

As for PRRFTFYPCVLATEGFTSGRHYWE [TRIM39], the protein stability index reads like this: under setting [1], 2.31 ± 0.51; under setting [2], 2.19 ± 0.13.

With GVSSVDSAFSSRGSLSLSFEREPS [RIPK4], the protein stability index was 4.33 ± 0.77 under setting [1] and 4.8 ± 0.52 under setting [2].

Take HSEGRVEVYYDGQWGTVCDDDFSI [LOXL2]: the protein stability index reads like this: under setting [1], 3.23 ± 0.33; under setting [2], 3.56 ± 0.33.

On to DHSSRELSKILAKLERLKQQNEDL [FUT8], for which the protein stability index was 3.89 ± 0.12 under setting [1] and 4.03 ± 0.16 under setting [2].

PDTQENRRMFSSLFQFSNCSQGQQ [CCDC3] registered a protein stability index under setting [1] of 3.67 ± 0.19 and a protein stability index under setting [2] of 3.51 ± 0.17.

In the case of EVKLLLSSETPIEGKNMSFVNDLT [APMAP], the protein stability index was 3.35 ± 0.23 under setting [1] and 3.56 ± 0.13 under setting [2].

For MEYCLEVIKENDPSGFLQISDALI [TRIM9], the protein stability index reads like this: under setting [1], 2.47 ± 0.29; under setting [2], 2.69 ± 0.28.

GEFRTGKTQICHTLAVTCQLPIDR [RAD51]: the protein stability index worked out at 2.73 ± 0.52 under setting [1] and 3.02 ± 0.29 under setting [2].

With RAKVQPQARKKEMEMRQLQRGPA [CPN1], the protein stability index by setting is: under setting [3], 3.26 ± 0.43; under setting [4], 3.11 ± 0.18.

GWSKGFIGMHREMQVNPISKRMGP [RHOBTB1] yielded a protein stability index under setting [1] of 2.63 ± 0.32 and a protein stability index under setting [2] of 2.61 ± 0.12.

As for ILHIPQVTKLCVQFLNDQISVQNY [KLHL14], the protein stability index was 2.54 ± 0.45 under setting [1] and 2.51 ± 0.52 under setting [2].

For MELLCHEVDPVRRAVRDRNLLRDD [CCND2], the protein stability index by setting is: under setting [1], 4.28 ± 0.34; under setting [2], 4.5 ± 0.12.

Consider QCLVEGCTEKFKTSRDRKDHMVRM [ZNF511], for which the protein stability index is 3.57 ± 0.27 under setting [1] and 3.95 ± 0.25 under setting [2].

LLRHGMDRLWRPSKVLSLQDLCCR [RAB40B]: the protein stability index by setting is: under setting [1], 3.03 ± 0.09; under setting [2], 2.97 ± 0.25.

As for MGNSMKSTPAPAERPLPNPEGLDS [SLA], the protein stability index reads like this: under setting [1], 5.07 ± 0.49; under setting [2], 5.13 ± 0.59.

For the sequence KHLARQLEEKDRVLKKQDAFYKEQ [CHCHD3], the protein stability index by setting is: under setting [1], 4.33 ± 0.2; under setting [2], 4.57 ± 0.24.

Take ERNEVRNVFKELQIMQGLEHPFLV [STK32A]: the protein stability index by setting is: under setting [1], 2.71 ± 0.32; under setting [2], 2.72 ± 0.41.

In the case of SLFSLLIAAAVYIMDTVGNIWVCY [SLC19A2], the protein stability index reads like this: under setting [1], 2.94 ± 0.41; under setting [2], 3.03 ± 0.72.

On to ARIQQSRRQCHAEEDQSQVPEAG [SMIM2], for which the protein stability index worked out at 3.25 ± 0.4 under setting [3] and 3.29 ± 0.31 under setting [4].

In the case of CLTAGPEVAAQLPAVRQLLPCARV [ZSWIM9], the protein stability index amounted to 2.94 ± 0.21 under setting [1] and 2.97 ± 0.41 under setting [2].

As for TNETNVNIPQMADTLFERATNSSW [SNAP91], the protein stability index reads like this: under setting [1], 3.77 ± 0.11; under setting [2], 3.99 ± 0.2.

Sequence LMPGVPPLMPGMPPVMPGMPPGLH [ZNF207] had a protein stability index under setting [1] of 3.02 ± 0.33 and a protein stability index under setting [2] of 2.99 ± 0.32.

Turning to SGPEGNLNQIVTEPDANFPQFLHE [FAM104B], the protein stability index is 4.81 ± 0.15 under setting [1] and 4.93 ± 0.16 under setting [2].

In the case of DHWNNEKERILLVTDKTLLICKYD [TPRG1], the protein stability index turned out to be 2.18 ± 0.32 under setting [1] and 2.47 ± 0.15 under setting [2].

As to GVCMGLVAAACACGFTVAQIITSL [OR10K2], the protein stability index amounted to 3.21 ± 0.34 under setting [1] and 3.04 ± 0.69 under setting [2].

In the case of NQQLRNELQLEQSRAANQEQRAND [CEP70], the protein stability index was found to be 5.48 ± 0.11 under setting [1] and 5.42 ± 0.24 under setting [2].

Take RHCPYLDTINRSVLDFDFEKLCSI [USP39]: the protein stability index by setting is: under setting [1], 2.61 ± 0.23; under setting [2], 2.56 ± 0.3.

TIRLRPRQVLCEKCKSTLSPPEAS [PWWP2B]: the protein stability index turned out to be 3.23 ± 0.3 under setting [1] and 3.75 ± 0.6 under setting [2].

As for VHFSEAIEKFIREPSLKATMGLAG [ALG2], the protein stability index is, setting by setting: under setting [1], 2.33 ± 0.27; under setting [2], 2.43 ± 0.24.

On to YCLTCEVPTCSMCKVFGIHKACEV [TRIM63], for which the protein stability index amounted to 2.69 ± 0.45 under setting [1] and 2.8 ± 0.33 under setting [2].

With VELARYLVDVRQEQLQGFNTRVRE [DNAAF3], the protein stability index is, setting by setting: under setting [1], 2.54 ± 0.36; under setting [2], 2.77 ± 0.13.

As to SKYVKLNVGGALYYTTMQTLTKQD [KCTD10], the protein stability index was found to be 2.15 ± 0.25 under setting [1] and 2.44 ± 0.33 under setting [2].

As for MQRLVAWDPACLPLPPPPPAFKSM [CEBPB], the protein stability index worked out at 2.63 ± 0.39 under setting [1] and 2.91 ± 0.39 under setting [2].

For FFPMGDEGASSQIGRAAGTGFTVN [HDAC6], the protein stability index by setting is: under setting [1], 3.46 ± 0.17; under setting [2], 3.69 ± 0.15.

For the sequence KQNPGKFCLLSCGILTFLAVLGRY [RETREG3], the protein stability index stood at 2.33 ± 0.55 under setting [1] and 2.54 ± 0.37 under setting [2].

Turning to ECEEGELSFYDAERHCHLYTFHAR [TRIM35], the protein stability index was found to be 3.18 ± 0.27 under setting [1] and 3.21 ± 0.24 under setting [2].

With PGTLLKTSPSPERSLLLKYARTPT [TRIM14], the protein stability index is, setting by setting: under setting [1], 3.27 ± 0.22; under setting [2], 3.15 ± 0.12.

With HAACLKCAECSQYLDETCTCFVRD [ISL2], the protein stability index under setting [1] turned out to be 4.67 ± 0.22 and the protein stability index under setting [2] stood at 4.83 ± 0.23.

Take FMEFYQDVKDWWLFGFYFCMPLVC [EDNRA]: the protein stability index worked out at 3.155 ± 0.026 under setting [1] and 3.2 ± 0.56 under setting [2].

As for LRDHADSNIVIMLVGNKSDLRHLR [RAB11A], the protein stability index runs as follows: under setting [1], 2.36 ± 0.24; under setting [2], 2.18 ± 0.38.

Take IGCGNFGELRLGKNLYTNEYVAIK [CSNK1G3]: the protein stability index reads like this: under setting [1], 2.07 ± 0.18; under setting [2], 2.12 ± 0.44.

The sequence SFPATLETQEQDVDLVQKYLEKYY [MMP1] came in with a protein stability index under setting [1] of 3.82 ± 0.12 and a protein stability index under setting [2] of 4.09 ± 0.2.

In the case of EHGYENMNHFTVNLNREEKIIREI [TRIM55], the protein stability index by setting is: under setting [1], 3.64 ± 0.19; under setting [2], 3.85 ± 0.27.

For the sequence AGGNSSSSAAMQSSCSSTSGGGGG [CCDC6], the protein stability index came to 5.08 ± 0.11 under setting [1] and 5.035 ± 0.022 under setting [2].

As for VLEQFLTILPQEIQSRVQELHPES [ZNF263], the protein stability index runs as follows: under setting [1], 2.56 ± 0.31; under setting [2], 2.53 ± 0.39.

Regarding ASSGDLTCGVCALELGSTEVLLDH [PLAGL1], the protein stability index was 2.68 ± 0.4 under setting [1] and 2.82 ± 0.49 under setting [2].

For the sequence DFTLSKTNMARIREIMEKFGKQPV [CPXM2], the protein stability index came out at 2.71 ± 0.088 under setting [1] and 2.62 ± 0.33 under setting [2].

PLPFPGPFPAGPLAVAGGPRKTAA [ESRRA] had a protein stability index under setting [1] of 4.43 ± 0.17 and a protein stability index under setting [2] of 4.25 ± 0.14.

With LKVGGILVMPLEEKLTKITRTGPS [PCMTD2], the protein stability index is, setting by setting: under setting [1], 2.4 ± 0.21; under setting [2], 2.16 ± 0.41.

NSMPVDNRNHNEGMVTRCIIEVLS [CHGB]: the protein stability index runs as follows: under setting [1], 2.77 ± 0.14; under setting [2], 2.59 ± 0.3.

Take AVQHFYNIKLEGKVPMHKLFLEML [ESRRG]: the protein stability index came to 2.06 ± 0.42 under setting [1] and 2.23 ± 0.22 under setting [2].

As for PTTSFLSISKLSPFSEFFKLRFNR [PWWP2B], the protein stability index is 2.07 ± 0.33 under setting [1] and 2.13 ± 0.36 under setting [2].

With WDRNRRRGGGAAGAGGGGSGAGGG [KLHDC10], the protein stability index reads like this: under setting [1], 5.16 ± 0.5; under setting [2], 5.3 ± 0.2.

Regarding STIGFKLPNHRAAKRLWKVCVEHH [EPB41L3], the protein stability index is, setting by setting: under setting [1], 2.26 ± 0.27; under setting [2], 2.58 ± 0.45.

Regarding DRVLRAMLKAEETCAPSVSYFKCV [CCND1], the protein stability index is, setting by setting: under setting [1], 2.29 ± 0.25; under setting [2], 2.35 ± 0.4.

Take KGRTIYLEDIYVMPEYRGQGIGSK [SAT2]: the protein stability index is 2.44 ± 0.31 under setting [1] and 2.79 ± 0.12 under setting [2].

With VVEEVRRRATSGGKWPQVLFFPEG [LPCAT4], the protein stability index came out at 2.75 ± 0.31 under setting [1] and 3.24 ± 0.26 under setting [2].

For the sequence SIFYDLPQGSGFCLGQLNLEQRSE [SMAD6], the protein stability index was 3.21 ± 0.21 under setting [1] and 3.45 ± 0.25 under setting [2].

Regarding HYWELDVDNSCDWALGVCNNSWIR [TRIM43], the protein stability index under setting [1] was 2.25 ± 0.21 and the protein stability index under setting [2] came out at 2.2 ± 0.34.

Regarding RRHRLGGVGAVPGPGTPTGPSLPS [ZBTB22], the protein stability index under setting [1] amounted to 4.25 ± 0.22 and the protein stability index under setting [2] stood at 4.47 ± 0.16.

Regarding VHNIVIFMRTSVKISYIGLMTQSS [TMEM106C], the protein stability index amounted to 2.83 ± 0.38 under setting [1] and 3.03 ± 0.32 under setting [2].

Regarding SRMKFRGNGALSNISDLPFLAENS [LCOR], the protein stability index was found to be 3.32 ± 0.31 under setting [1] and 3.47 ± 0.27 under setting [2].

Consider CAVMNVVFITILIIALIALSVGQY [CD69], for which the protein stability index turned out to be 3.04 ± 0.34 under setting [1] and 2.47 ± 0.48 under setting [2].

Sequence VIYCLGGYDGLNILNSVEKYDPHT [KLHL12] came in with a protein stability index under setting [1] of 2.39 ± 0.54 and a protein stability index under setting [2] of 2.18 ± 0.39.

For the sequence FANGHTYHINSISVNSDCETYMSA [PPP2R2C], the protein stability index is, setting by setting: under setting [1], 2.68 ± 0.69; under setting [2], 2.63 ± 0.23.

Consider DIETACKLLNITADPMDWSPSNVQ [SPDEF], for which the protein stability index by setting is: under setting [1], 2.75 ± 0.42; under setting [2], 2.77 ± 0.17.

Regarding EDENIEVVYSKAASVPKVETVKSD [EIF5], the protein stability index under setting [1] stood at 5.44 ± 0.41 and the protein stability index under setting [2] turned out to be 5.4 ± 0.19.

As for MSQTGSHPGRGLAGRWLWGAQPCL [ADAMTS4], the protein stability index runs as follows: under setting [1], 3 ± 0.38; under setting [2], 2.28 ± 0.87.

SRSNSRSRSYSPRRSRGSPRYSPR [SRSF1]: the protein stability index was 5.28 ± 0.26 under setting [1] and 5.56 ± 0.065 under setting [2].
